Reference: patent publication US20230355720A1, “PHARMACEUTICAL COMPOSITION FOR PREVENTING OR TREATING BONE DISEASES, COMPRISING TRIPLE AGONIST OR CONJUGATE THEREOF HAVING ACTIVITY WITH RESPECT TO ALL OF GLUCAGON, GLP-1 AND GLP RECEPTORS” (HANMI PHARM. CO., LTD., priority 2020, published 2023)
Bridge positions count the residues as written; N and C are the ends. Square brackets hold non-standard residues; d marks the D form. Ends that are not written are not given here. * marks the point of attachment. Acetyl(2-(4-imidazolyl)) = O=C(Cc1c[nH]cn1)*; Aib = CC(C)(N)C(=O)O

T1: human GIP receptor (human, UniProt P48546 22-466)
T1 sequence (looked up): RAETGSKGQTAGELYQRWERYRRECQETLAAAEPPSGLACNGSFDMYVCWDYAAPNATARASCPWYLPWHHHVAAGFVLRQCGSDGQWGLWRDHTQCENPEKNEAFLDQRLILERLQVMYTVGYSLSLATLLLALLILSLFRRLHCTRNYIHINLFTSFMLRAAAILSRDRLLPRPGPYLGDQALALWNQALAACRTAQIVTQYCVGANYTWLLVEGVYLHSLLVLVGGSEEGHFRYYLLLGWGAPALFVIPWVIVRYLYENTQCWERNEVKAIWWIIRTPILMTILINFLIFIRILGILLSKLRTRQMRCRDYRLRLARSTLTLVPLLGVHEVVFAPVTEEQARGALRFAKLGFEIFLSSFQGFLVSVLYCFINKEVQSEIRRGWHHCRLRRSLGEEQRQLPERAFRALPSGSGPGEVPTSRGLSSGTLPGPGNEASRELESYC

B1: triple agonist of SEQ ID NO: 1 (peptide)
peptide: H[Aib]QGTFTSDVSSYLDGQAAKEFIAWLVKGC
B2: triple agonist of SEQ ID NO: 4 (peptide)
peptide: H[Aib]QGTFTSDVSSYLLGQQQKEFIAWLVKGC
B3: triple agonist of SEQ ID NO: 34 (peptide)
peptide: H[Aib]QGTFTSDYSKYLDEKRQKEFVNWLLAQKC
modifications: bridge 16-20
B4: triple agonist of SEQ ID NO: 36 (peptide)
peptide: H[Aib]QGTFTSDYSKYLCEKRQKEFVQWLLNGGPSSGAPPPSG
modifications: bridge 16-20
B5: triple agonist of SEQ ID NO: 37 (peptide)
peptide: H[Aib]QGTFTSDYSKYLDECRQKEFVQWLLNGGPSSGAPPPSG
modifications: bridge 16-20
B6: triple agonist of SEQ ID NO: 39 (peptide)
peptide: H[Aib]QGTFTSDYSKYLDGQHAQCFVAWLLAGGGPSSGAPPPS
B7: triple agonist of SEQ ID NO: 40 (peptide)
peptide: H[Aib]QGTFTSDKSKYLDERACQDFVQWLLDGGPSSGAPPPS
modifications: not fully specified
B8: triple agonist of SEQ ID NO: 41 (peptide)
peptide: H[Aib]QGTFTSDKSKYLDECAAQDFVQWLLDGGPSSGAPPPS
modifications: not fully specified
B9: triple agonist of SEQ ID NO: 42 (peptide)
peptide: Y[Aib]QGTFTSDYSKYLDEKRAKEFVQWLLDHHPSSGQPPPSC
modifications: bridge 16-20
B10: triple agonist of SEQ ID NO: 43 (peptide)
peptide: Y[Aib]QGTFTSDYSKYLDEKRAKEFVQWLLDHHCSSGQPPPS
modifications: bridge 16-20
B11: triple agonist of SEQ ID NO: 44 (peptide)
peptide: HGQGTFTSDCSKQLDGQAAQEFVAWLLAGGPSSGAPPPS
B12: triple agonist of SEQ ID NO: 5 (peptide)
peptide: H[Aib]QGTFTSDVSSYLLGQQQKEFIAWLVKGGGPSSGAPPPSC
B13: triple agonist of SEQ ID NO: 38 (peptide)
peptide: [Acetyl(2-(4-imidazolyl))][Aib]QGTFTSDKSSYLDERAAQDFVQWLLDGGPSSGAPPPSS
modifications: not fully specified

These binders were tested against human GCG receptor (human, UniProt P47871 26-477) (assay: cell-based or functional assay).
Sequence of human GCG receptor (P47871 26-477): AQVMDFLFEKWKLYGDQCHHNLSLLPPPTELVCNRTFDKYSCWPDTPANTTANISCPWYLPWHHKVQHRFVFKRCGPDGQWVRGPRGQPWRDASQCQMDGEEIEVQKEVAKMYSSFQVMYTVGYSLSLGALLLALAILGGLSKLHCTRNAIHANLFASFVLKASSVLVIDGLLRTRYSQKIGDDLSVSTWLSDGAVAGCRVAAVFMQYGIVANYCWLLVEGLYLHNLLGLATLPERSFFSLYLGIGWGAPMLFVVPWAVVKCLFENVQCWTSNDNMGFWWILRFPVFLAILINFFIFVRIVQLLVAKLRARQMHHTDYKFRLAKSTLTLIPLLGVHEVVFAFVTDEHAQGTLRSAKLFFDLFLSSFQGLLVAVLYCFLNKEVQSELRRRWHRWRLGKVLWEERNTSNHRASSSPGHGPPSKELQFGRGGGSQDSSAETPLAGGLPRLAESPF

B1 and B2 cannot be ordered by “In vitro activity (%) compared with native peptide, vs Glucagon” value (shortened to “In vitro activity (%) … vs Glucagon”): < 0.1% for the first, < 0.1% for the second.

Compared with B3, B4 is lower in “In vitro activity (%) … vs Glucagon” value: 0.92% for the first, 0.39% for the second.

First: B5
Second: B6
The “In vitro activity (%) … vs Glucagon” value of the first is higher: 6.21% for the first, 0.53% for the second.

B7 and B8 cannot be ordered by “In vitro activity (%) … vs Glucagon” value: < 0.1% for the first, < 0.1% for the second.

First: B9
Second: B10
The “In vitro activity (%) … vs Glucagon” value of the first is higher: 206% for the first, 88.4% for the second.

B11 and B12 cannot be ordered by “In vitro activity (%) … vs Glucagon” value: < 0.1% for the first, < 0.1% for the second.

What follows are binders tested against T1, human GIP receptor (assay: cell-based or functional assay).

B1 and B2 cannot be ordered by “In vitro activity (%) compared with native peptide, vs GIP” value (from here on “In vitro activity (%) … vs GIP”): < 0.1% for the first, < 0.1% for the second.

Compared with B3, B4 is lower in “In vitro activity (%) … vs GIP” value: 0.6% for the first, 0.2% for the second.

First: B5
Second: B6
The “In vitro activity (%) … vs GIP” value of the first is higher: 2.2% for the first, < 0.1% for the second.

B7 and B8 cannot be ordered by “In vitro activity (%) … vs GIP” value: < 0.1% for the first, < 0.1% for the second.

Compared with B9, B10 is lower in “In vitro activity (%) … vs GIP” value: 7.8% for the first, 3.7% for the second.

B11 and B12 cannot be ordered by “In vitro activity (%) … vs GIP” value: < 0.1% for the first, < 0.1% for the second.

Each binder was assayed against human GLP-1 receptor (human, UniProt P43220 24-463) (assay: cell-based or functional assay).

Compared with B1, B2 is higher in “In vitro activity (%) compared with native peptide, vs GLP-1” value (“In vitro activity (%) … vs GLP-1” below): 3.2% for the first, 8.5% for the second.

Going from B3 to B4, the “In vitro activity (%) … vs GLP-1” value rises from 19.1% to 37.4%.

Going from B5 to B13, the “In vitro activity (%) … vs GLP-1” value falls from 236% to 2.3%.

Compared with B6, B7 is higher in “In vitro activity (%) … vs GLP-1” value: 13.9% for the first, 75.2% for the second.

First: B8
Second: B9
The “In vitro activity (%) … vs GLP-1” value of the first is higher: 34.3% for the first, 33.9% for the second.

First: B10
Second: B11
The “In vitro activity (%) … vs GLP-1” value of the first is higher: 12.6% for the first, 1.3% for the second.

B12 was tested, and the “In vitro activity (%) … vs GLP-1” value was 42.1%.
